Experimental data as given in patent US12545899B2, “Luciferase enzymes for use with thermostable luciferins in bioluminescent assays” (Promega Corporation, priority 2018, dated 2026).

How the values were obtained:
[1] = Differential scanning fluorimetry (DSF) analysis; format: physicochemical; conditions: Table 9A
Method in brief: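 Enzymes mixed with Sypro Orange at 5× final, heated 30–95° C at 1° C per minute with fluorescence read every 60 s. Storage buffer 50 mM HEPES pH 7.5, 100 mM NaCl, 2 mM EDTA, or for luciferase variants 20 mM HEPES pH 7.5, 200 mM NaCl, 1 mM EDTA; per-minute fluorescence change plotted against temperature.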

[2] = Effect of individual mutations: maximum luminescence with CS0333; format: biochemical; conditions: for Vmax (RLU) with CS0333: 10 fM to 1 mM CS0333, Detection Reagent (DR) buffer
Procedure: Experiments were also conducted to evaluate and compare the activities of the various luciferase enzyme variants, including the effects of individual amino acid mutations. To evaluate the effect of individual mutations on luciferase enzyme variants, 0.005 mg/ml luciferase enzyme variant was mixed with 1 mM ATP+10 fM to 1 mM CS0333 in Detection Reagent (DR) buffer.

[3] = Luminescence at 1 mM D/L-luciferin (Table 11); format: biochemical; conditions: 1 mM substrate, 1 mM ATP
From the text: (§1) Tables 10 and 11 include representative results of kinetic analysis of the thermostable variants with D/L luciferin, CS0333, and CS0280. […] MK0135 and MK0137 have amino acid substitutions that improve thermostability relative to MK0133 and MK0134, respectively, while retaining activity on the luciferin analogs CS0333 and CS0280.

[4] = Luminescence at 1 mM CS0333 (Table 11); format: biochemical; conditions: 1 mM substrate, 1 mM ATP
From the text: as §1

[5] = Luminescence at 1 mM CS0280 (Table 11); format: biochemical; conditions: 1 mM substrate, 1 mM ATP
From the text: as §1

[6] = Kinetic analysis of thermostable variants with D/L-luciferin (Tables 13, 14); format: biochemical; conditions: 2 mM ATP
From the text: (§2) Tables 13 and 14 include representative results of kinetic analysis of the thermostable variants with D/L luciferin, CS0333, and CS0280. The panel of enzyme variants highlight amino acid substitutions that further improve upon MK0137 in maximum luminescence (Vmax) or Km in different buffers with the different substrates tested (D/L-luciferin, CS0333, and CS0280). In particular, enzyme variants MK0151 and MK153 show improvements relative to MK0137 across multiple buffers with multiple substrates.

[7] = Kinetic analysis of thermostable variants with CS0333 (Tables 13, 14); format: biochemical; conditions: 2 mM ATP
From the text: as §2

[8] = Kinetic analysis of thermostable variants with CS0280 (Tables 13, 14); format: biochemical; conditions: 2 mM ATP
From the text: as §2

B1: MK0110: SEQ ID NO: 77; H244W (protein)
chain: MADKNILYGPEPFYPLEDGTAGEQMFDALSRYAAIPGCIALTNAHTKENVLYEEFLKLSCRLAESFKKYGLKQNDTIAVCSENSLQFFLPVIASLYLGIIVAPVNDKYVERELIHSLGIVKPRIVFCSKNTFQKVLNVKSKLKSIETIIILDLNEDLGGYQCLNNFISQNSDSNLDVKKFKPYSFNRDDQVASIMFSSGTTGLPKGVMLTHKNIVARFSIAKDPTFGDAINPTSAILTVIPFHWGFGMMTTLGYFTCGFRVVLMHTFEEKLFLQSLQDYKVESTLLVPTLMAFLAKSALVEKYDFPHLKEIASGGAPLSKEIGEMVKKRFKLNFVRQGYGLTEATSAVLITPKGDAKPGSTGKIVPLHAVKVVDPTTGKILGPNEPGELYFKGPMKMKGYYNNEEATKAIIDNDGWLRSGDIAYYDNDGHFYIVDRLKSLIKYKGYQVAPAEIEGILLQHPYIVDAGVTGIPDEAAGELPAAGVVVQTGKYLNEQIVQDYVASQVSTAKWLRGGVKFLDEIPKGSTGKIDRKVLRQMLEKHTNGHHHHHHHH
In the case of B1, the “DSF Tm (° C.)” value [1] is reported as 80 °C, the “Vmax (RLU) with CS0333” value [2] is reported as 9,534 RLU and the “improvement of maximum luminescence with CS0333 above background” value ([2]; single point mutation introduced into the Ppe variant, DR buffer) is reported as ~5 fold.

B2: MK0111: SEQ ID NO: 78; L305F (protein)
chain: MADKNILYGPEPFYPLEDGTAGEQMFDALSRYAAIPGCIALTNAHTKENVLYEEFLKLSCRLAESFKKYGLKQNDTIAVCSENSLQFFLPVIASLYLGIIVAPVNDKYVERELIHSLGIVKPRIVFCSKNTFQKVLNVKSKLKSIETIIILDLNEDLGGYQCLNNFISQNSDSNLDVKKFKPYSFNRDDQVAAIMFSSGTTGLPKGVMLTHKNIVARFSIAKDPTFGDAINPTSAILTVIPFHHGFGMMTTLGYFTCGFRVVLMHTFEEKLFLQSLQDYKVESTLLVPTLMAFLAKSALVEKYDFPHLKEIASGGAPLSKEIGEMVKKRFKLNFVRQGYGLTEATSAVLITPKGDAKPGSTGKIVPLHAVKVVDPTTGKILGPNEPGELYFKGPMKMKGYYNNEEATKAIIDNDGWLRSGDIAYYDNDGHFYIVDRLKSLIKYKGYQVAPAEIEGILLQHPYIVDAGVTGIPDEAAGELPAAGVVVQTGKYLNEQIVQDYVASQVSTAKWLRGGVKFLDEIPKGSTGKIDRKVLRQMLEKHTNGHHHHHHHH
For B2, the “DSF Tm (° C.)” value [1] was 79 °C and the “Vmax (RLU) with CS0333” value [2] was 1,166 RLU.

B3: MK0112: SEQ ID NO: 79; S306P (protein)
chain: MADKNILYGPEPFYPLEDGTAGEQMFDALSRYAAIPGCIALTNAHTKENVLYEEFLKLSCRLAESFKKYGLKQNDTIAVCSENSLQFFLPVIASLYLGIIVAPVNDKYVERELIHSLGIVKPRIVFCSKNTFQKVLNVKSKLKSIETIIILDLNEDLGGYQCLNNFISQNSDSNLDVKKFKPYSFNRDDQVAAIMFSSGTTGLPKGVMLTHKNIVARFSIAKDPTFGDAINPTSAILTVIPFHWGFGMMTTLGYFTCGFRVVLMHTFEEKLFLQSLQDYKVESTLLVPTLMAFLAKSALVEKYDLPHLKEIASGGAPLSKEIGEMVKKRFKLNFVRQGYGLTEATSAVLITPKGDAKPGSTGKIVPLHAVKVVDPTTGKILGPNEPGELYFKGPMKMKGYYNNEEATKAIIDNDGWLRSGDIAYYDNDGHFYIVDRLKSLIKYKGYQVAPAEIEGILLQHPYIVDAGVTGIPDEAAGELPAAGVVVQTGKYLNEQIVQDYVASQVSTAKWLRGGVKFLDEIPKGSTGKIDRKVLRQMLEKHTNGHHHHHHHH
For B3, the “DSF Tm (° C.)” value [1] was 80 °C and the “Vmax (RLU) with CS0333” value [2] was 1,232 RLU.

B4: MK0113: SEQ ID NO: 80; T344A (protein)
chain: MADKNILYGPEPFYPLEDGTAGEQMFDALSRYAAIPGCIALTNAHTKENVLYEEFLKLSCRLAESFKKYGLKQNDTIAVCSENSLQFFLPVIASLYLGIIVAPVNDKYVERELIHSLGIVKPRIVFCSKNTFQKVLNVKSKLKSIETIIILDLNEDLGGYQCLNNFISQNSDSNLDVKKFKPYSFNRDDQVAAIMFSSGTTGLPKGVMLTHKNIVARFSIAKDPTFGDAINPTSAILTVIPFHWGFGMMTTLGYFTCGFRVVLMHTFEEKLFLQSLQDYKVESTLLVPTLMAFLAKSALVEKYDFSHLKEIASGGAPLSKEIGEMVKKRFKLNFVRQGYGLTEATSAVLITPKGDAKPGSTGKIVPLHAVKVVDPTTGKILGPNEPGELYFKGPMKMKGYYNNEEATKAIIDNDGWLRSGDIAYYDNDGHFYIVDRLKSLIKYKGYQVAPAEIEGILLQHPYIVDAGVTGIPDEAAGELPAAGVVVQTGKYLNEQIVQDYVASQVSTAKWLRGGVKFLDEIPKGSTGKIDRKVLRQMLEKHTNGHHHHHHHH
With B4 the “DSF Tm (° C.)” value [1] was 71 °C and the “Vmax (RLU) with CS0333” value [2] was 1,948 RLU.

B5: MK0114: SEQ ID NO: 81; T344M (protein)
chain: MADKNILYGPEPFYPLEDGTAGEQMFDALSRYAAIPGCIALTNAHTKENVLYEEFLKLSCRLAESFKKYGLKQNDTIAVCSENSLQFFLPVIASLYLGIIVAPVNDKYVERELIHSLGIVKPRIVFCSKNTFQKVLNVKSKLKSIETIIILDLNEDLGGYQCLNNFISQNSDSNLDVKKFKPYSFNRDDQVAAIMFSSGTTGLPKGVMLTHKNIVARFSIAKDPTFGDAINPTSAILTVIPFHWGFGMMTTLGYFTCGFRVVLMHTFEEKLFLQSLQDYKVESTLLVPTLMAFLAKSALVEKYDFPHLKEIASGGAPLSKEIGEMVKKRFKLNFVRQGYGLTETTSAVLITPKGDAKPGSTGKIVPLHAVKVVDPTTGKILGPNEPGELYFKGPMKMKGYYNNEEATKAIIDNDGWLRSGDIAYYDNDGHFYIVDRLKSLIKYKGYQVAPAEIEGILLQHPYIVDAGVTGIPDEAAGELPAAGVVVQTGKYLNEQIVQDYVASQVSTAKWLRGGVKFLDEIPKGSTGKIDRKVLRQMLEKHTNGHHHHHHHH
With B5 the “DSF Tm (° C.)” value [1] was 70 °C and the “Vmax (RLU) with CS0333” value [2] was 1,030 RLU.

B6: MK0115: SEQ ID NO: 82; I396K (protein)
chain: MADKNILYGPEPFYPLEDGTAGEQMFDALSRYAAIPGCIALTNAHTKENVLYEEFLKLSCRLAESFKKYGLKQNDTIAVCSENSLQFFLPVIASLYLGIIVAPVNDKYVERELIHSLGIVKPRIVFCSKNTFQKVLNVKSKLKSIETIIILDLNEDLGGYQCLNNFISQNSDSNLDVKKFKPYSFNRDDQVAAIMFSSGTTGLPKGVMLTHKNIVARFSIAKDPTFGDAINPTSAILTVIPFHWGFGMMTTLGYFTCGFRVVLMHTFEEKLFLQSLQDYKVESTLLVPTLMAFLAKSALVEKYDFPHLKEIASGGAPLSKEIGEMVKKRFKLNFVRQGYGLTEATSAVLITPKGDAKPGSTGKIVPLHAVKVVDPTTGKILGPNEPGELYFKGPMIMKGYYNNEEATKAIIDNDGWLRSGDIAYYDNDGHFYIVDRLKSLIKYKGYQVAPAEIEGILLQHPYIVDAGVTGIPDEAAGELPAAGVVVQTGKYLNEQIVQDYVASQVSTAKWLRGGVKFLDEIPKGSTGKIDRKVLRQMLEKHTNGHHHHHHHH
With B6 the “DSF Tm (° C.)” value [1] was 67 °C and the “Vmax (RLU) with CS0333” value [2] was 2,120 RLU.

B7: MK0159: SEQ ID NO: 124; H244W+S193A+N228D+L305F+S306P+I109V+C38R+F55I+Y108F+A316W+Y339M+T342S+V348I+T284A+T289S+S313T+W510R (protein)
chain: MADKNILYGPEPFYPLEDGTAGEQMFDALSRYAAIPGRIALTNAHTKENVLYEEILKLSCRLAESFKKYGLKQNDTIAVCSENSLQFFLPVIASLYLGIIVAPVNDKFVERELIHSLGIVKPRIVFCSKNTFQKVLNVKSKLKSIETIIILDLNEDLGGYQCLNNFISQNSDSNLDVKKFKPYSFNRDDQVAAIMFSSGTTGLPKGVMLTHKNIVARFSIAKDPTFGDAINPTSAILTVIPFHWGFGMMTTLGYFTRGFRVVLMHTFEEKLFLQSLQDYKVESALLVPSLMAFLAKSALVEKYDFPHLKEIATGGWPLSKEIGEMVKKRFKLNFVRQGMGLSETTSAILITPRGDAKPGSTGKIVPLHAVKVVDPTTGKILGPNEPGELYFKGPMIMKGYYNNEEATKAIIDNDGWLRSGDIAYYDNDGHFYIVGRRKSLIKYKGYQVAPAEIEGILLQHPYIVDAGVTGIPDEAAGELPAAGVVVQTGKYLNEQIVQDYVASQVSTAKRLRGGVKFLDEIPKGSTGKIDRKVLRQMLEKHTNGHHHHHHHH
With B7 the “Vmax (RLU) D/L-luciferin BrightGlo Buffer” value ([3]; BrightGlo Buffer) was 688,326 RLU, the “Vmax (RLU) D/L-luciferin Detection Reagent Buffer” value ([3]; Detection Reagent Buffer) was 106,195 RLU and the “Vmax (RLU) CS0333 BrightGlo Buffer” value ([4]; BrightGlo Buffer) was 6,850,630 RLU. For the same molecule, the “Vmax (RLU) CS0333 Detection Reagent Buffer” value ([4]; Detection Reagent Buffer) was 4,630,740 RLU, the “Vmax (RLU) CS0280 BrightGlo Buffer” value ([5]; BrightGlo Buffer) was 2,094,150 RLU and the “Vmax (RLU) CS0280 Detection Reagent Buffer” value ([5]; Detection Reagent Buffer) was 110,050 RLU. The Km ([6]; BrightGlo Buffer) was 0.107 µM, the “Vmax (RLU)” value ([6]; BrightGlo Buffer) was 2,363,790 RLU and the Km ([6]; Detection Reagent Buffer) was 0.444 µM. For the same molecule, the “Vmax (RLU)” value ([6]; Detection Reagent Buffer) was 369,822 RLU, the Km ([7]; BrightGlo Buffer) was 14.7 µM and the “Vmax (RLU)” value ([7]; BrightGlo Buffer) was 1,528,708 RLU. The Km ([7]; Detection Reagent Buffer) was 20.9 µM, the “Vmax (RLU)” value ([7]; Detection Reagent Buffer) was 523,610 RLU and the Km ([8]; BrightGlo Buffer) was 2.78 µM. For the same molecule, the “Vmax (RLU)” value ([8]; BrightGlo Buffer) was 439,625 RLU, the Km ([8]; Detection Reagent Buffer) was 602 µM and the “Vmax (RLU)” value ([8]; Detection Reagent Buffer) was 40,925 RLU.
